One may read the stoichiometry N as the number of molecules, sites or subunits per partner or assembly.

Experimental findings from publication PMC10681173 are described below.

In assay [1] the target is His6-tagged RMM. The assay can be described thus: SEC; size-exclusion HPLC of TALON-purified samples. For orientation: Size exclusion chromatography separates by hydrodynamic size, large species first.
The target of assay [2] is SUMO-RMM fused to GFP10 or GFP11 through the long linkers Lk30/27 (SUMO-RMM-GFP10, SUMO-RMM-GFP11). The assay can be described thus: split reporter (BiFC, NanoBiT); tripartite GFP in E. coli BL21(DE3) cells; single vector, POI-10 and POI-11 on a bicistronic mRNA under T7p, GFP1-9 independent; IPTG 10 uM from the start, 37°C; Fmax relative to the RMM reference.
Assay [3] deals with RMM BMC-H fused to GFP10 or GFP11 through the long linkers Lk30/27 (RMM-10/RMM-11, reference pair). The assay is described as above.
For assay [4] the target is unchanged. The assay can be described thus: split reporter (BiFC, NanoBiT); tripartite GFP in E. coli BL21(DE3) cells; single vector, all three partners on a single tricistronic mRNA; IPTG 10 uM from the start, 37°C.
In assay [5] the target is K26D RMM single mutant fused to GFP10 or GFP11 (sm-RMM-10/11). The assay can be described thus: tripartite GFP (tGFP) reconstitution, in-cell fluorescence Fmax. The note with it: data collected over 16 h, induction from the culture start, read off a plot.
Assay [6] addresses K26D/N29D/A53D RMM triple mutant fused to GFP10 or GFP11 (tm-RMM-10/11). The description is as above. As to conditions: data collected over 16 h, induction from the culture start, read off a plot.
Assay [7] addresses N29D/A53D RMM double mutant fused to GFP10 or GFP11 (dm-RMM-10/11). Described as above. As to conditions: data collected over 16 h, induction from the culture start, read off a plot.
For assay [8], the target named is RMM BMC-H with GFP10 or GFP11 at the N-terminus (N-ter tagged RMM-10/11). The assay can be described thus: split reporter (BiFC, NanoBiT); tripartite GFP in E. coli BL21(DE3) cells; single vector, POI-10 and POI-11 on a bicistronic mRNA under T7p, GFP1-9 independent; IPTG 10 uM from the start, 37°C; Fmax relative to the RMM reference.
The target of assay [9] is SUMO-RMM-His6. Kind of assay: SEC; size-exclusion HPLC of TALON-purified samples.
Setting [10] is: bicistron organization mode, parent: est. 103.
Setting [11] is: independent-transcript organization mode, Lk30/27 linkers, parent: est. 100.
[12] abbreviates: tricistron organization mode, parent: est. 97.

The substance His6-tagged RMM (natural protein) came in with a stoichiometry N in assay [1] of 6.
In assay [2], “RMM BMC-H fused to GFP10 or GFP11 through the long linkers Lk30/27 (RMM-10/RMM-11, reference pair) (natural protein)” yielded an Fmax as percent of the RMM pair reference of 115%. Also, the ratio of RMM versus BWI signals in [3] is 15 fold; in assay [4] it was 2 fold.
For the substance “RMM BMC-H fused to GFP10 or GFP11 through the long linkers Lk30/27 (RMM-10/RMM-11, reference pair) K26D”, the percent of parent in [5] (setting [10]) amounted to 107%; in assay [5] (setting [11]) it was 119%.
On to “RMM BMC-H fused to GFP10 or GFP11 through the long linkers Lk30/27 (RMM-10/RMM-11, reference pair) K26D; N29D; A53D”, for which the percent of parent came out at 39% in assay [6] (setting [10]), 41% in assay [6] (setting [11]) and 40% in [6] (setting [12]).
Take “RMM BMC-H fused to GFP10 or GFP11 through the long linkers Lk30/27 (RMM-10/RMM-11, reference pair) N29D; A53D”: the percent of parent in [7] (setting [10]) worked out at 102%; in assay [7] (setting [11]), 124%; in [7] (setting [12]), 108%.
In assay [8], “RMM BMC-H with GFP10 or GFP11 at the N-terminus (N-ter tagged RMM-10/11) (natural protein)” yielded a fold drop of fluorescence against C-ter tagged RMM of 3 fold.
With “SUMO-RMM fused to GFP10 or GFP11 through the long linkers Lk30/27 (SUMO-RMM-GFP10, SUMO-RMM-GFP11)”, the Fmax as percent of the RMM pair reference in assay [2] and in assay [3] was 50 to 65% each time.
Regarding SUMO-RMM-His6, the stoichiometry N in assay [9] amounted to 12.
